Measurements reported in patent publication US7960513B2, “Antibody against a human ADAM protease” (Monash University, priority 2004, dated 2011).
“Also recorded” adds a separate entry of the source.

Key:
ephrin-A1 = molecular target: T1, ephrin-A1 (Homo sapiens, UniProt P20827); assay: In vitro binding (Protein-A pull-down) assay; conditions: ephrin-Fc captured on Protein A Sepharose
T1 sequence (P20827 19-182 limits assumed): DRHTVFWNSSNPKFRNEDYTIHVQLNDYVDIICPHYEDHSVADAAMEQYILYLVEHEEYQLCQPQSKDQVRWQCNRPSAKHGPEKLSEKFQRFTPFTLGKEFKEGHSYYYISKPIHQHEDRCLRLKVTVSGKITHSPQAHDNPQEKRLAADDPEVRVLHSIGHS

ephrin-A2 = molecular target: T2, ephrin-A2 (Homo sapiens, UniProt O43921); assay: In vitro binding (Protein-A pull-down) assay; conditions: ephrin-Fc captured on Protein A Sepharose
T2 construct: incubated with Fc-tagged ectodomains of Eph-A3, EphB2, EphB4 and ephrin-A2, ephrin-A5, ephrin-B2 (R&D systems); purchased R&D systems
T2 sequence (O43921 25-188 limits assumed): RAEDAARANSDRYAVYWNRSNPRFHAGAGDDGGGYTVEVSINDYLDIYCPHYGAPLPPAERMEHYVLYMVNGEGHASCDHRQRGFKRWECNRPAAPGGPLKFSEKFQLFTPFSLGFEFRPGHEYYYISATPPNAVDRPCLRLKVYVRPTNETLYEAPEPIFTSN
Description: (§1) Pull-down experiments were done as follows: ADAM10D+C, ADAM17D+C w.t. or the alanine mutants (˜15 μg) were incubated with Fc-tagged ectodomains of Eph-A3, EphB2, EphB4 and ephrin-A2, ephrin-A5, ephrin-B2 (R&D systems) at 4° C. for 30 min in 500 μL of binding buffer containing 10 mM HEPES (pH 7.4), 150 mM NaCl and 0.05% of Triton X-100. To test binding to the preformed EphA3/ephrin-A5 complex, 5 μg of the untagged ephrin-A5 was incubated with Fc tagged EphA3 for 30 min at 4° C. followed by the addition of ADAM10. The proteins were incubated for an additional 30 min., when Protein-A-Sepharose (Amersham) beads were added to the reaction mixture and shaken at 4° C. for 2h. The beads were then harvested by centrifugation, washed once with 500 μl of binding buffer and the bound proteins were separated on a 10-20% gradient polyacrylamide gel. The binding of the individual ADAM domains was carried out likewise using 15 μg of the disintegrin and 8 μg of the cysteine-rich domain.

EphB4/ephrin-B2 complex = molecular target: T3, EphB4/ephrin-B2 complex (Homo sapiens, UniProt P52799+P54760); assay: In vitro binding (Protein-A pull-down) assay; conditions: Protein-A capture
T3 construct: incubated with Fc-tagged ectodomains of Eph-A3, EphB2, EphB4 and ephrin-A2, ephrin-A5, ephrin-B2 (R&D systems); purchased R&D systems
T3 sequence (P52799 28-229 limits assumed): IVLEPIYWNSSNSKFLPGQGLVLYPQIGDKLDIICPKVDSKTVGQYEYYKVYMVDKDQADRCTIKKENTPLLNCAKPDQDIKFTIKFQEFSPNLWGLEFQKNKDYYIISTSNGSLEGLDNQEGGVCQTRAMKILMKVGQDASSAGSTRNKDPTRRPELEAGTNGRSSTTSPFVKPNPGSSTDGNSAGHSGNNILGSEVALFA
T3 sequence (P54760 16-539 limits assumed): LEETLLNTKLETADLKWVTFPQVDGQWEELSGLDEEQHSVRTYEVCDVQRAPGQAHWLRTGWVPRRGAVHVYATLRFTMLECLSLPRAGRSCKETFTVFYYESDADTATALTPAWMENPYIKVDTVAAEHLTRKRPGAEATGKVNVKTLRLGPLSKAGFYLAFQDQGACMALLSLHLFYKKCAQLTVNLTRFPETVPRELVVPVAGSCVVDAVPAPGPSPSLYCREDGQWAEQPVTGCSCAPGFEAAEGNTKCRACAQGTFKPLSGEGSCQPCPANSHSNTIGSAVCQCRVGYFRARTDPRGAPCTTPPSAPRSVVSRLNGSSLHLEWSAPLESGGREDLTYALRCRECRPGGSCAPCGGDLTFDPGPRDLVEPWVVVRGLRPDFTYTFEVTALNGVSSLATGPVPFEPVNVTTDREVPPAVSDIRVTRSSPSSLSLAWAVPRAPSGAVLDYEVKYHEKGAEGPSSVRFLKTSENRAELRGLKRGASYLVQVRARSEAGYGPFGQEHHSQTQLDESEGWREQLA
Description: as §1

ectodomain of EphA3 = molecular target: T4, ectodomain of EphA3 (Homo sapiens, UniProt P29320); assay: In vitro binding (Protein-A pull-down) assay; conditions: EphA3-Fc alone, without ephrin
T4 construct: incubated with Fc-tagged ectodomains of Eph-A3, EphB2, EphB4 and ephrin-A2, ephrin-A5, ephrin-B2 (R&D systems); purchased R&D systems
T4 sequence (P29320 21-541 limits assumed): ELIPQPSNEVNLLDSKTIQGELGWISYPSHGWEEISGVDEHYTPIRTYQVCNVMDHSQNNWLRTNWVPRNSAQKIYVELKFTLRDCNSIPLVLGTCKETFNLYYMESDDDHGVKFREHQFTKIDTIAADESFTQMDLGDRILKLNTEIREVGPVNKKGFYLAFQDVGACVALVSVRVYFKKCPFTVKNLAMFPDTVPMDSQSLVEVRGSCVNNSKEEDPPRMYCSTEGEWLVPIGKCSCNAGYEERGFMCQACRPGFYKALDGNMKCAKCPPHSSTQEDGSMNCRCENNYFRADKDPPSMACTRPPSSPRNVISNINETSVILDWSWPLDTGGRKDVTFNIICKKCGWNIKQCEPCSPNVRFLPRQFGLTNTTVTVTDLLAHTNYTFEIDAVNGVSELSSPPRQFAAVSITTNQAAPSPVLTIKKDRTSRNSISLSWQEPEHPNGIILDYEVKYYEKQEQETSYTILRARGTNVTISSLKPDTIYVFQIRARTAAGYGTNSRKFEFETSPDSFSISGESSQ
Description: as §1

EphA3/ephrin-A5 complex = molecular target: T5, EphA3/ephrin-A5 complex (Homo sapiens, UniProt P29320+P52803); assay: In vitro binding (Protein-A pull-down) assay
T5 construct: incubated with Fc-tagged ectodomains of Eph-A3, EphB2, EphB4 and ephrin-A2, ephrin-A5, ephrin-B2 (R&D systems)
T5 sequence (P29320 21-541 limits assumed): T4 sequence (P29320 21-541 limits assumed)
T5 sequence (P52803 21-203 limits assumed): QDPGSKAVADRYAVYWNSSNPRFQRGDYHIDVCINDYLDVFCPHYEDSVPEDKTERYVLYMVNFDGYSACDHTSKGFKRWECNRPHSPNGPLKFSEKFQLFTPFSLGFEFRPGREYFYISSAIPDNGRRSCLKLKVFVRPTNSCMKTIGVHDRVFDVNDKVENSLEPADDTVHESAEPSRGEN
Description: as §1

[1] = molecular target: T6, EphA3/ephrin-A5 Fc complex (Homo sapiens, UniProt P29320+P52803); assay: HTRF / FRET assay of EphA3/ephrin-A5/ADAM10D+C complex formation; assay type: binding; conditions: unlabelled protein at increasing concentrations, 320 nM complex
T6 construct: Fc fusion proteins of the ephrin-A5 and EphA3 extracellular domains fused to the hinge and Fc region of human IgG1 were produced as described
T6 sequence (P29320 21-541 limits assumed): T4 sequence (P29320 21-541 limits assumed)
T6 sequence (P52803 21-203 limits assumed): T5 sequence (P52803 21-203 limits assumed)
Description: FIG. 6. Fluorescence Energy Transfer (RET) analysis monitoring the formation of EphA3/ephrin-A5/ADAM10D+C complexes. • A) The proposed screening approach for inhibitors of the complex formation is based on a Homogeneous Time Resolved Fluorescence (HTRF™) Assay using a Eu^3+ chelate labeled donor and a XL665 labeled acceptor protein. Interactions between ADAM10 and its substrate, the EphA3/ephrinA5 complex are measured using (normalized) emission at 665 nm: the interaction brings the labels into proximity and triggers fluorescence resonance energy transfer (FRET), which initiates a chemical reaction cascade to produce an amplified fluorescent signal. […]
In this regard, screening or identification of inhibitors of complex formation is based on high-throughput homogeneous time resolved fluorescence (HTRF™) technology utilising donor and acceptor fluorescence labels that are conjugated to Fc-tagged proteins. An interaction between proteins brings the labels into proximity and triggers fluorescence resonance energy transfer (FRET), which initiates a chemical reaction cascade to produce an amplified fluorescent signal. […]
The proposed drug screening approach is based on homogeneous time resolved fluorescence HTRF™ technology utilising donor and acceptor fluorescence labels that are conjugated to Fc-tagged proteins. […]

B1: ADAM10D+C: recombinant bovine Adam10 disintegrin and cysteine-rich domains (residues 455-646), Fc tag removed (protein)
chain: SGQPICGNGMVEQGEECDCGYSDQCKDECCYDANQPEGKKCKLKPGKQCSPSQGPCCTAHCAFKSKTEKCRDDSDCAKEGICNGITALCPASDPKPNFTDCNRHTQVCINGQCAGSICEKHGLEECTCASSDGKDDKELCHVCCMKKMEPSTCASTGSVQWNKYFLGRTITLQPGSPCNDFRGYCDVFMRCR
binding to ephrin-A1 (ephrin-A1): bound
binding to ephrin-A2 (ephrin-A2): bound
binding to EphB4/ephrin-B2 complex (EphB4/ephrin-B2 complex): little or no association; also recorded: does not bind
binding to EphA3 ectodomain (ectodomain of EphA3): no interaction was seen
binding to EphA3/ephrin-A5 complex (EphA3/ephrin-A5 complex; EphA3-Fc plus untagged ephrin-A5): readily bound and formed a stable complex; also recorded: binds
amount of EphA3-bound (complexed) ephrin-A5 (EphA3/ephrin-A5 complex; single-chain ephrin-A5 lacking Fc, captured via EphA3-Fc): notably increased
inhibition of the labelled ADAM10D+C - EphA3/ephrin-A5 interaction (A665/A620) [1]: competitive inhibitor
